Here are results for one molecule from patent US20230391832A1, “CO[…]-BINDING POLYPEPTIDES AND METHODS OF USING THE SAME” (Isolere Bio, Inc., priority 2022, published 2023).

For test [1], the system named is AAV9 full capsids. As to the kind of experiment: pH dependence of binding by ELISA (acidic vs neutral elution). The note with it: purified polypeptide 1 μM; citric acid pH 3, 4 or 5 vs TBS pH 7.2; FIG. 4. The protocol:
The pH dependence of binding of the polypeptides of Table C was evaluated by ELISA. Initially, the bacterial lysates of cultures expressing the polypeptides of Table C were incubated in a citric acid solution (pH 4.0) containing AAV9 capsids for 30 minutes. Subsequently, the solution was washed in Tris-Buffered Saline (TBS), which contained 0.05% TWEEN® 20, at neutral pH.
The five polypeptides were expressed and purified via a C-terminal 6X-His tag. The purified polypeptides (1 μM) were incubated with an ELISA plate that was coated with AAV9 full capsids. The polypeptides were eluted from the ELISA plate with a citric acid solution at pH 3, 4, or 5 (acidic elution) or in the TBS solution described above at pH 7.2 (neutral elution). The ELISA signal from the protein that was still bound to the AAV9 capsid was measured. The post elution % ligand remaining bound to AAV9 was calculated by dividing the signal after pH 3, 4, or 5 incubation by the signal after pH 7.2 incubation, and multiplying by 100.

Test [2] deals with AAV full capsids vs AAV empty capsids. The note with it: cited from earlier work.
For test [3], the system named is AAV8 capsids. As to the kind of experiment: ELISA cross-reactivity, AAV8 (FIG. 3C). Type of test: binding. The text has this:
(§1) The control sequence (i.e. the human polycystic kidney domain 2, which is known to bind to AAV9 capsids) is labeled “C” in each graph.
(§2) Seven of the variants of Table C were screened for cross-reactivity to AAV2, AAV5, and AAV8.
A general note: In an ELISA, binding on a coated surface is turned into a signal by an enzyme label.

Test [4] has as its system AAV5 capsids. As to the kind of experiment: ELISA cross-reactivity, AAV5 (FIG. 3B). Type of test: binding.
From the text: as §1, §2

The subject of test [5] is AAV2 capsids. The test is described as follows: ELISA cross-reactivity, AAV2 (FIG. 3A). It is filed as binding.
From the text: as §1, §2

For test [6], the system named is AAV9 capsids. The note with it: cited from earlier work.

B1: PKD2 control protein: N-terminal His-tagged polycystic kidney domain 2 (PKD2 domain) from the AAV receptor, known to bind AAV9 capsids (protein)
chain: IAIVSPQFQEISLPTTSTVIDGSQSTDDDKIVQYHWEELKGPLREEKISEDTAILKLSKLVPGNYTFSLTVVDSDGATNSTTANLTVNKA
modifications: left off: small tags and cut ends
B1: the “AAV9 binding signal after acidic elution compared to neutral elution” value in test [1] was “reduced AAV9 binding signal”. The “discrimination between full and empty capsids (known)” value in test [2] was “no discrimination between full and empty capsids”. The “binding / cross-reactivity to AAV8” value in test [3] is given as “bound poorly or very weakly”. Moreover, the “binding / cross-reactivity to AAV5” value in test [4] is listed as “bound poorly or very weakly”. The “binding / cross-reactivity to AAV2” value in test [5] was “cross reacted strongly”. The “affinity to AAV9 capsids (known)” value in test [6] is reported as “known affinity to AAV9 capsids”.
